# Test results as given in the supplement of paper PMC9732359.
# ± gives the uncertainty stated by the source.
# Assay: protein stability index of a GFP-peptide fusion (yeast GPS) (PSI 1-4); higher = more stable; sorted into four equal gates, so the index is relative within each strain
# In short: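 Tiled yeast protein peptides of 17 residues were each joined downstream of GFP, on plasmids that also express Cherry. The pooled library was maintained in yeast, and mid-log cultures in leucine-free medium were sorted into four equal gates on the GFP/Cherry ratio. Plasmids from every gate were amplified by PCR and sequenced on Illumina, with barcodes linking reads to strains. The protein stability index of a peptide is its gate-number-weighted read frequency summed over the gates.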
Sequence,protein stability index (doa10∆),protein stability index (pdr5∆),protein stability index (san1∆),protein stability index (ubr1∆)
QKLHKVKKASGEIVSIN [RPL20A],2.98 ± 0.076,2.61 ± 0.057,3.07 ± 0.042,2.8 ± 0.056
DTTVNDCLDKLLNDECT [SNF2],3.43 ± 0.16,3.46 ± 0.1,3.59 ± 0.075,3.73 ± 0.094
TAAYARTIGIAVDHRRQ [RPL13A],1.58 ± 0.077,1.58 ± 0.05,1.22 ± 0.088,1.77 ± 0.055
YNDSATSGEAAALGMGL [RPN2],2.32 ± 0.096,2.45 ± 0.11,2.99 ± 0.078,2.43 ± 0.084
RVERSSRSTDNFHNSKK [RRI1],3.31 ± 0.076,3.25 ± 0.078,2.99 ± 0.082,3.08 ± 0.057
SKCLNLISDSNINNSSV [SWI3],1.94 ± 0.072,1.91 ± 0.065,1.6 ± 0.11,2.41 ± 0.039
KDAVDYSKIPNILSNKP [RRP6],1.51 ± 0.096,1.97 ± 0.093,1.58 ± 0.21,1.58 ± 0.049
MVAATKRRKTHIHKHVK [RET1],2.96 ± 0.17,3.08 ± 0.15,2.31 ± 0.2,3.09 ± 0.1
LNRIINHMLIDSLNQLE [RGR1],3.24 ± 0.15,2.96 ± 0.23,2.89 ± 0.18,2.68 ± 0.19
VGLKNYDPQRDKRFSGS [RPL1A],3.23 ± 0.082,3.48 ± 0.1,3 ± 0.096,3.25 ± 0.061
LESADKQLEKRDYQRIN [POP4],2.71 ± 0.052,2.72 ± 0.055,2.64 ± 0.065,3.18 ± 0.059
GLNNDFLFQNINFERID [GRR1],2.09 ± 0.05,2.16 ± 0.057,2.19 ± 0.055,2.12 ± 0.042
LSLYSTDLENSSLFQEK [ECM29],2.95 ± 0.069,2.81 ± 0.077,3 ± 0.053,2.77 ± 0.046
RREFKQYSLERNSPFWW [PRP8],3.06 ± 0.12,3.64 ± 0.12,3.1 ± 0.12,3.19 ± 0.14
QFVDMVLPNTALKTSIQ [FAS1],2.5 ± 0.091,1.61 ± 0.05,1.58 ± 0.12,1.28 ± 0.039
RDYLVDTLKLRENLHIL [RRP6],3.52 ± 0.098,3.29 ± 0.096,3.4 ± 0.069,3.29 ± 0.084
EPIKVNVRVGQAVETVG [RPN1],1.41 ± 0.16,2.26 ± 0.11,2.47 ± 0.11,2.44 ± 0.15
NVFARLSRLLSLWEVFQ [RPC82],1.78 ± 0.16,2.06 ± 0.13,2.79 ± 0.14,2.38 ± 0.067
LPPPPPPPGLDELETKA [PRP8],3.13 ± 0.056,3.15 ± 0.057,3.25 ± 0.05,3.17 ± 0.05
ALHYLVPFIIAAMVIMH [COB],1.73 ± 0.066,1.29 ± 0.061,1.61 ± 0.15,1.4 ± 0.055
ETPNQDATYDSALELVG [RPN6],2.62 ± 0.088,2.86 ± 0.072,2.61 ± 0.081,2.6 ± 0.1
GNPGRIRVLFKENGQLI [SEC65],2.38 ± 0.055,2.24 ± 0.072,2.33 ± 0.11,2.44 ± 0.059
SKIQEIESIRSCKDSQL [YIL149C/MLP2],2.29 ± 0.044,2.92 ± 0.054,2.77 ± 0.041,2.79 ± 0.047
LKIFKIFCIDLEVFHHF [SRB8],1.57 ± 0.069,2.23 ± 0.1,1.67 ± 0.1,2.53 ± 0.092
EKRHKNVPVHVSPAFRV [RPS11A],1.8 ± 0.051,2.72 ± 0.077,2.9 ± 0.07,2.75 ± 0.053
NQMKVAPIPKQLLQRIP [GAL11],2.28 ± 0.07,2.54 ± 0.062,2.52 ± 0.054,2.3 ± 0.043
FPPGVIGIDEGSDEAYV [RPC40],3.59 ± 0.091,3.41 ± 0.085,3.29 ± 0.077,3.51 ± 0.056

Sequence,protein stability index (doa10∆),protein stability index (pdr5∆),protein stability index (san1∆),protein stability index (ubr1∆)
KKNIDYQNRSTRSQFCL [RRI1],3.01 ± 0.039,2.94 ± 0.04,2.88 ± 0.034,3.079 ± 0.026
KNLSLQTGTKPVLKKKA [COR1],2.95 ± 0.07,3.05 ± 0.095,3.09 ± 0.06,2.79 ± 0.076
VPAVVDDPLENMFGDYS [SNF6],3.09 ± 0.14,3.48 ± 0.12,2.85 ± 0.17,3.35 ± 0.11
FLTNYNVRMDTMANILY [RPB2],3.58 ± 0.17,3.02 ± 0.098,3.48 ± 0.1,3.48 ± 0.14
ATPQDAQFYLGKRIAYV [RPL33A],2.29 ± 0.082,2.66 ± 0.07,2.57 ± 0.074,2.7 ± 0.075
WYEASTWIQQFKSTMLQ [ARP7],2.54 ± 0.078,2.68 ± 0.069,2.6 ± 0.093,2.14 ± 0.056
DTSKALLNVSVNITKFS [SKI6],2.27 ± 0.08,2.57 ± 0.068,2.72 ± 0.073,2.42 ± 0.072
KDRISHEVVQDDSFSLL [PCI8],3.19 ± 0.082,3.46 ± 0.071,3.19 ± 0.056,3.05 ± 0.075
EVCAKMPNIELYLKVIP [SSN2],2.71 ± 0.047,2.51 ± 0.045,2.48 ± 0.052,2.26 ± 0.039
QKTVFDELCKLVTCEGS [SRP54],1.19 ± 0.1,1.48 ± 0.091,1.25 ± 0.18,1.14 ± 0.086
REVENSVSLLNSDIANL [SMC1],2.8 ± 0.063,2.59 ± 0.077,2.99 ± 0.07,2.86 ± 0.072
KKMGVPYAIIKGKARLG [RPL8B],2.15 ± 0.15,2.12 ± 0.15,2.11 ± 0.17,3.41 ± 0.28
EEAKSVLPAATKKKSKF [ARP9],2.1 ± 0.062,2.25 ± 0.043,2.04 ± 0.06,2.31 ± 0.036
VTNDLDTSAEKDQIQAG [SIR4],3.32 ± 0.12,3.36 ± 0.12,3.28 ± 0.11,3.21 ± 0.073
EPLAPGNDNLIKAPTVA [YLR335W/NUP2],2.57 ± 0.067,2.77 ± 0.064,2.53 ± 0.053,2.88 ± 0.059
PKPDKPSGRTRGRSVMK [ESC2],3.14 ± 0.17,3.05 ± 0.15,3.08 ± 0.098,3.7 ± 0.13
ALKNACNSIINKLGALK [RPB11],2.89 ± 0.29,,2.95 ± 0.11,3.17 ± 0.15
LLALRERRMQVTAEDFK [RPT2],2.79 ± 0.13,2.8 ± 0.17,2.89 ± 0.11,
SILSFVDKELLEPGCSV [RPT2],2.75 ± 0.077,2.86 ± 0.071,2.3 ± 0.078,3.01 ± 0.066
KRDQYLKSASKETAPVI [RPL28],2.7 ± 0.12,2.69 ± 0.12,2.59 ± 0.065,2.43 ± 0.13
GLHSSEYKLRSLTLSFI [ECM29],2.18 ± 0.057,2.21 ± 0.061,2.41 ± 0.066,2.46 ± 0.049
RAVLTPLITRHCYPRQL [RRP46],2.4 ± 0.048,2.18 ± 0.037,2.36 ± 0.052,2.39 ± 0.033
TGEKPIITGSTSTSSSN [MED8],2.79 ± 0.048,2.52 ± 0.04,2.57 ± 0.044,2.37 ± 0.033
TTMFENTGWSCSRIIKI [RGR1],3.61 ± 0.2,3.45 ± 0.13,3.37 ± 0.11,3.51 ± 0.1
TETSNEDEDEDDETPSC [SNU114],2.68 ± 0.067,2.75 ± 0.058,3.02 ± 0.055,2.74 ± 0.046
IDQAHVSEITKLKFFPS [RPN14],3.12 ± 0.077,3.01 ± 0.071,3.12 ± 0.054,3.28 ± 0.053
YSFGGLLMRLEGNYRNL [RPB8],1.8 ± 0.12,2.55 ± 0.12,3.06 ± 0.17,2.56 ± 0.088
